B3: human α-actinin 1 rod domain SR1–SR2–SR3–SR4 (shear–force constructs) (domain or fragment, UniProt P12814 267-745, looked up)
chain: AVNQENEQLMEDYEKLASDLLEWIRRTIPWLENRVPENTMHAMQQKLEDFRDYRRLHKPPKVQEKCQLEINFNTLQTKLRLSNRPAFMPSEGRMVSDINNAWGCLEQVEKGYEEWLLNEIRRLERLDHLAEKFRQKASIHEAWTDGKEAMLRQKDYETATLSEIKALLKKHEAFESDLAAHQDRVEQIAAIAQELNELDYYDSPSVNARCQKICDQWDNLGALTQKRREALERTEKLLETIDQLYLEYAKRAAPFNNWMEGAMEDLQDTFIVHTIEEIQGLTTAHEQFKATLPDADKERLAILGIHNEVSKIVQTYHVNMAGTNPYTTITPQEINGKWDHVRQLVPRRDQALTEEHARQQHNERLRKQFGAQANVIGPWIQTKMEEIGRISIEMHGTLEDQLSHLRQYEKSIVNYKPKIDQLEGDHQLIQEALIFDNKHTNYTMEHIRVGWEQLLTTIARTINEVENQILTRDAKGISQ
modifications: biotin on the AviTag (second rod of the homo-dimer construct)
notes: human α-actinin 1 (ACTN1), central rod domain of four spectrin-like repeats SR1–SR2–SR3–SR4; a full SR rod with the helical linker region has about 480 amino acids; Stood in single-chain chimeras: Spy003–(SR1–SR4)ACTN1–(GS linker, about 170 aa)–AviTag–(SR1–SR4)ACTN1 (homo-dimer; first rod bears SpyTag003, second rod the biotinylated AviTag) and Spy003–(SR1–SR4)ACTN1–(GS …)

Experiments:
[1] = biological target: Entamoeba histolytica α-actinin 2 rod SR1–SR2 (Entamoeba histolytica); experiment: single-molecule magnetic tweezers; shear–force geometry; same tethered single-chain constructs; force–jump cycles, dwell time until rupture at a target force, lifetime by exponential fit with bootstrap analysis; 1× PBS, 1% BSA, 1 mM DTT, 10 mM sodium L-ascorbate, 22 ± 1 °C
[2] = biological target: Entamoeba histolytica α-actinin 2 rod SR1–SR2 (Entamoeba histolytica); experiment: single-molecule magnetic tweezers; shear–force geometry; the two partners on one chain joined by a long flexible GS linker, tethered via SpyTag003 to a SpyCatcher-coated coverslip and via the biotinylated AviTag to a streptavidin/neutravidin bead; linear force-increase scans (5 pN/s; 1 pN/s for SR2–SR3:SR2–SR3; 1 and 5 pN/s for E. histolytica) and force-decrease scans (−0.1 pN/s); 1× PBS, 1% BSA, 1 mM DTT, 10 mM sodium L-ascorbate, 22 ± 1 °C
[3] = biological target: T1, human α-actinin 1 SR2–SR3–SR4 (human, UniProt P12814 385-745); experiment: single-molecule magnetic tweezers; shear–force geometry; same tethered single-chain constructs; force–jump cycles, dwell time until rupture at a target force, lifetime by exponential fit with bootstrap analysis; 1× PBS, 1% BSA, 1 mM DTT, 10 mM sodium L-ascorbate, 22 ± 1 °C; settings: both partners purified
T1 construct: human α-actinin 1 (ACTN1), spectrin-like repeats SR2–SR3–SR4 of the rod; First half of the single-chain chimera Spy003–(SR2–SR3–SR4)ACTN1–(GS linker)–AviTag–(SR1–SR2–SR3)ACTN1; joined to m5 by the linker; also called (SR2–SR3–SR4)_(ACTN1); not shown: SpyTag003, N-terminal, kept

[4] = biological target: B3; experiment: as above; settings: both partners purified
[5] = biological target: the molecule itself; experiment: as above

“Entamoeba histolytica α-actinin 2 rod SR1–SR2 (domain or fragment)” gave a lifetime at forces <10 pN (second state) [1] greater than 10 s, a lifetime at forces <10 pN (third state) [1] greater than 1 s and a lifetime at forces <15 pN (strongest state) [1] greater than 100 s. The peak rupture force (second state, 5 pN/s) [2] was 20 pN, the peak rupture force (strongest state, 5 pN/s) [2] was 33 pN and the rupture force (third state) [2] was 5 pN.

B1: human α-actinin 1 SR1–SR2–SR3 (domain or fragment, UniProt P12814 267-625, looked up)
chain: AVNQENEQLMEDYEKLASDLLEWIRRTIPWLENRVPENTMHAMQQKLEDFRDYRRLHKPPKVQEKCQLEINFNTLQTKLRLSNRPAFMPSEGRMVSDINNAWGCLEQVEKGYEEWLLNEIRRLERLDHLAEKFRQKASIHEAWTDGKEAMLRQKDYETATLSEIKALLKKHEAFESDLAAHQDRVEQIAAIAQELNELDYYDSPSVNARCQKICDQWDNLGALTQKRREALERTEKLLETIDQLYLEYAKRAAPFNNWMEGAMEDLQDTFIVHTIEEIQGLTTAHEQFKATLPDADKERLAILGIHNEVSKIVQTYHVNMAGTNPYTTITPQEINGKWDHVRQLVPRRDQALTEEHARQ
modifications: biotin on the AviTag
notes: human α-actinin 1 (ACTN1), spectrin-like repeats SR1–SR2–SR3 of the rod; Second half of the single-chain chimera Spy003–(SR2–SR3–SR4)ACTN1–(GS linker)–AviTag–(SR1–SR2–SR3)ACTN1; joined to m4 by the linker; also called (SR1–SR2–SR3)_(ACTN1); not shown: AviTag, N-terminal, kept
For B1, the “fold decrease of the force-dependent lifetime against the full rod dimer (m1 with m1)” value [3] was roughly 1000 fold.

B2: human α-actinin 4 rod domain SR1–SR2–SR3–SR4 (domain or fragment, UniProt O43707 286-764, looked up)
chain: AVNQENEHLMEDYEKLASDLLEWIRRTIPWLEDRVPQKTIQEMQQKLEDFRDYRRVHKPPKVQEKCQLEINFNTLQTKLRLSNRPAFMPSEGKMVSDINNGWQHLEQAEKGYEEWLLNEIRRLERLDHLAEKFRQKASIHEAWTDGKEAMLKHRDYETATLSDIKALIRKHEAFESDLAAHQDRVEQIAAIAQELNELDYYDSHNVNTRCQKICDQWDALGSLTHSRREALEKTEKQLEAIDQLHLEYAKRAAPFNNWMESAMEDLQDMFIVHTIEEIEGLISAHDQFKSTLPDADREREAILAIHKEAQRIAESNHIKLSGSNPYTTVTPQIINSKWEKVQQLVPKRDHALLEEQSKQQSNEHLRRQFASQANVVGPWIQTKMEEIGRISIEMNGTLEDQLSHLKQYERSIVDYKPNLDLLEQQHQLIQEALIFDNKHTNYTMEHIRVGWEQLLTTIARTINEVENQILTRDAKGISQ
modifications: biotin on the AviTag (second rod of the construct)
notes: human α-actinin 4 (ACTN4), central rod domain of four spectrin-like repeats SR1–SR2–SR3–SR4; here the ACTN4 rod bears the biotinylated AviTag; also called (SR1–SR2–SR3–SR4)_(ACTN4); not shown: SpyTag003, N-terminal, kept; AviTag, N-terminal, kept
For B2, the “lifetime within 40 pN (shear geometry)” value [4] was greater than 100 s and the “lifetime within 40 pN (shear geometry)” value [5] was greater than 100 s.

In the case of B3, the “lifetime within 40 pN (shear geometry)” value [5] is reported as greater than 100 s.

Source: paper PMC11271494, “Multi-domain interaction mediated strength-building in human α-actinin dimers unveiled by direct single-molecule quantification” (Nature Communications, 2024)
